Measured values: patent US20210403541A1 (Merck Sharp & Dohme, published 2021)
Non-standard residues stand in square brackets, D forms with d. No end group written: not given here. pS = N[C@@H](COP(=O)(O)O)C(=O)O

T1: pT212/pS214GC (69AXY) (human, phosphothreonine 212 and phosphoserine 214 of tau, printed GCGSPGTPGSRSR(pT)P(pS)LPTPPTREPK)
T1 construct: also called T-pT212pS214GC
T1 peptide: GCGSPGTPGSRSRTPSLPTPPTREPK

T2: pS396/400/404GC (84AWK) (human, phosphoserines at 396, 400 and 404 of tau, printed GCRENAKAKTDHGAEIVYK(pS)PVV(pS)GDT(pS)PRHL)
T2 construct: also called T-pS396/400/404GC
T2 peptide: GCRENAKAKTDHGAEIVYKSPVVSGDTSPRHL

T3: pSer412Cys (74AXY) (human)
T3 peptide: NV[pS]STGSC


Key:
[1] = molecular target: T1, pT212/pS214GC (69AXY); assay: peptide-coated ELISA (1 µg/ml peptide 69AXY coat, anti-human IgG-HRP, ABTS, OD405)
Method: (§1) Binding specificity of the high affinity antibodies described herein was assessed with various tau peptides by a peptide-coated ELISA. Plates were coated with 50 μl of 1 μg/ml peptides 69AXY, 70AXY, 74AXY, 84AWK, 25AWF, or 24AWF in PBS for overnight at 4° C. On the next day, the plates were washed 3 times, blocked with 200 μl of superblock for 1 hr at room temperature, then washed 3 times again. Antibodies were diluted at 1:5 serial dilution in ELISA buffer starting from 10 μg/ml. The plates were incubated with 50 μl of serially diluted antibodies at room temperature for 1 hr and washed 3 times.

[2] = molecular target: T2, pS396/400/404GC (84AWK); assay: peptide-coated ELISA (1 µg/ml peptide 84AWK coat, anti-human IgG-HRP, ABTS, OD405)
Method: as §1

[3] = molecular target: T3, pSer412Cys (74AXY); assay: peptide-coated ELISA (1 µg/ml peptide 74AXY coat, anti-human IgG-HRP, ABTS, OD405)
Method: as §1

[4] = molecular target: human FcRn (human, UniProt P55899 24-297; P61769 21-119, limits assumed); assay: SPR (Biacore), antibody captured by anti-human kappa, FcRn injected, pH 6.0, steady-state fit; pH 6.0
Method: (§2) Anti-human kappa antibody was amine coupled to a CMS chip. Each antibody was captured to 200-300 RUs. Binding assays were performed using PBS running buffer containing 0.05% Tween-20, adjusted to either pH 6.0 or 7.4. Titration samples were also prepared using the corresponding pH buffer for the assay. Titrating concentrations (1200 nM top, 6-point, 3-fold dilution series and two zeros) of human or cyno FcRn were injected over the captured mAbs. Each sample injection was followed by two 30-second injections of 10 mM glycine, pH 1.5 and a 12-second injection of 10 mM NaOH to regenerate the surface for subsequent antibody capture and injection. All assays were run on Biacore T200 and/or 4000 instruments (GE Healthcare) and the data were fit to a steady-state approximation model using Biaevaluation software. Affinity at pH 6.0 was calculated as equivalent to concentration at half maximal binding signal in the steady-state approximation (TABLE 9).

[5] = molecular target: cynomolgus monkey (cyno) FcRn (cynomolgus monkey, UniProt Q8SPV9 24-297; Q8SPW0 21-119, limits assumed); assay: as above
Method: as §2

[6] = molecular target: T4, tau species in brain homogenates from mutant tau mice (rTg(tauP301L)4510), sarkosyl insoluble tau seeds; assay: competitive ELISA, tau mutant mice brain SI tau seeds (4 ng protein)
T4 construct: also called Tau mutant mice brain; SI Tau seeds
Method: (§3) Binding affinities of various anti-tau-pS413 antibodies described herein for endogenous tau species were determined in brain homogenates and CSF samples from AD patients and preclinical models. Briefly, samples were pre-incubated with different concentrations of various anti-tau-pS413 antibodies, or respective isotype controls. Following a one-hour pre-incubation period, the antigen-antibody (Ag-Ab) mixture was added to plates pre-coated with a total tau capture antibody (Innotest ELISA kit).
Tissue homogenates were prepared using 1% sarkosyl buffer with several high-speed centrifugation steps to enrich for insoluble proteins including tau.

[7] = molecular target: T5, tau species in CSF of African Green Monkeys (African Green Monkey); assay: competitive ELISA, fresh AGM CSF (75 µl of neat CSF)
T5 construct: also called Fresh African Green Monkey (AGM) CSF
Method: as §3

[8] = molecular target: T6, phosphorylated tau protein monomer (35 AWM); assay: competitive ELISA, phosphorylated tau protein monomer 35 AWM (1 ng)
T6 construct: also called recombinant phosphorylated tau protein monomer

| Binder | binding result [1] | binding result [2] | binding result [3] | Human FcRn fold change (relative to HmzTa1505-hIgG4-S228P) [4] [fold] | Kd [4] [nM] | Cyno FcRn fold change (relative to HmzTa1505-hIgG4-S228P) [5] [fold] | Kd [5] [nM] | EC50 [6] [nM] | EC50 [7] [nM] | EC50 [8] [nM] |
| --- | --- | --- | --- | --- | --- | --- | --- | --- | --- | --- |
| V5-AFM-hIgG4-S228P (antibody, V domains shown, also called V5-AFM-IgG4-S228P) VH: EVQLVESGGGLVQPGGSLRLSCAASGFTFSSFALNWVRQAPGKGLEWVGHIRSKTNNYVTFYAASVKGRFTVSRDDSQNTAYLQMNSLKTEDTATYYCVRRGPRDSWFGYWGQGTLVTVSS VL: DIVMTQSPLSLPVTLGEPASISCRSSQKIVHRNANTYLEWYLQKPGQSPQLLIYTVSNRFSGVPDRFSGSGSGTDFTLKISRVEAEDLGVYYCFQGSYLPLTFGGGTKVEIK | no binding (tested: 10 µg/ml) | no binding (tested: 10 µg/ml) | no binding (tested: 10 µg/ml) |  |  |  |  |  |  |  |
| V8-AFM-hIgG1-LALA (antibody, Human IgG1 L234A L235A/kappa; also called V8-AFM-IgG1-LALA) heavy: not shown light: DIVMTQSPLSLPVTLGEPASISCRSSQKIVHRNANTYLEWYLQKPGQSPQLLIYTVSNRFSGVPDRFSGSGSGTDFTLKISRVEAEDLGVYYCFQGSYLPLTFGGGTKVEIKRTVAAPSVFIFPPSDEQLKSGTASVVCLLNNFYPREAKVQWKVDNALQSGNSQESVTEQDSKDSTYSLSSTLTLSKADYEKHKVYACEVTHQGLSSPVTKSFNRGEC | no binding (tested: 10 µg/ml) | no binding (tested: 10 µg/ml) | no binding (tested: 10 µg/ml) | 1 | 230 | 1.6 | 160 |  |  |  |
| V8-AFM-hIgG4-S228P (antibody, also called V8-AFM-IgG4-S228P) heavy: not shown light: DIVMTQSPLSLPVTLGEPASISCRSSQKIVHRNANTYLEWYLQKPGQSPQLLIYTVSNRFSGVPDRFSGSGSGTDFTLKISRVEAEDLGVYYCFQGSYLPLTFGGGTKVEIKRTVAAPSVFIFPPSDEQLKSGTASVVCLLNNFYPREAKVQWKVDNALQSGNSQESVTEQDSKDSTYSLSSTLTLSKADYEKHKVYACEVTHQGLSSPVTKSFNRGEC | no binding (tested: 10 µg/ml) | no binding (tested: 10 µg/ml) | no binding (tested: 10 µg/ml) | 1 | 210 | 1 | 260 |  |  |  |

Further lines, results first:

| binding result [1] | binding result [2] | binding result [3] | Human FcRn fold change (relative to HmzTa1505-hIgG4-S228P) [4] [fold] | Kd [4] [nM] | Cyno FcRn fold change (relative to HmzTa1505-hIgG4-S228P) [5] [fold] | Kd [5] [nM] | EC50 [6] [nM] | EC50 [7] [nM] | EC50 [8] [nM] | Binder |
| --- | --- | --- | --- | --- | --- | --- | --- | --- | --- | --- |
| no binding (tested: 10 µg/ml) | no binding (tested: 10 µg/ml) | no binding (tested: 10 µg/ml) | 6.5 | 34 | 11 | 24 | 0.004 | 0.008 | 0.055 | V8-AFM-hIgG1-LALA-YTE (antibody, Human IgG1 L234A L235A YTE/kappa; also called V8-AFM-IgG1-LALA-YTE) heavy: EVQLVESGGGLVQPGGSLRLSCAASGFTFSSFALNWVRQAPGKGLEWVGHIRSETNNYVTFYAASVKGRFTVSRDDSQNTAYLQMNSLKTEDTATYYCVRRGPRDSWFGYWGQGTLVTVSSASTKGPSVFPLAPSSKSTSGGTAALGCLVKDYFPEPVTVSWNSGALTSGVHTFPAVLQSSGLYSLSSVVTVPSSSLGTQTYICNVNHKPSNTKVDKKVEPKSCDKTHTCPPCPAPEAAGGPSVFLFPPKPKDTLYITREPEVTCVVVDVSHEDPEVKFNWYVDGVEVHNAKTKPREEQYNSTYRVVSVLTVLHQDWLNGKEYKCKVSNKALPAPIEKTISKAKGQPREPQVYTLPPSRDELTKNQVSLTCLVKGFYPSDIAVEWESNGQPENNYKTTPPVLDSDGSFFLYSKLTVDKSRWQQGNVFSCSVMHEALHNHYTQKSLSLSPGK light: DIVMTQSPLSLPVTLGEPASISCRSSQKIVHRNANTYLEWYLQKPGQSPQLLIYTVSNRFSGVPDRFSGSGSGTDFTLKISRVEAEDLGVYYCFQGSYLPLTFGGGTKVEIKRTVAAPSVFIFPPSDEQLKSGTASVVCLLNNFYPREAKVQWKVDNALQSGNSQESVTEQDSKDSTYSLSSTLTLSKADYEKHKVYACEVTHQGLSSPVTKSFNRGEC |
|  |  |  | 1 | 220 | 1 | 260 | 0.67 | 2.08 | 6.73 | HmzTa1505-hIgG4-S228P (antibody) heavy: not shown light: DIVMTQSPLSLPVTLGEPASISCRSSQNIVHSNANTYLEWYLQKPGQSPQLLIYTVSNRFSGVPDRFSGSGSGTDFTLKISRVEAEDLGVYYCFQGSHLPLTFGGGTKVEIKRTVAAPSVFIFPPSDEQLKSGTASVVCLLNNFYPREAKVQWKVDNALQSGNSQESVTEQDSKDSTYSLSSTLTLSKADYEKHKVYACEVTHQGLSSPVTKSFNRGEC |
